Assay results published in IntAct's records for PubMed 31515488.

B1: Grancalcin (Homo sapiens), P28676 (parent)
chain: MAYPGYGGGFGNFSIQVPGMQMGQPVPETGPAILLDGYSGPAYSDTYSSAGDSVYTYFSAVAGQDGEVDAEELQRCLTQSGINGTYSPFSLETCRIMIAMLDRDHTGKMGFNAFKELWAALNAWKENFMTVDQDGSGTVEHHELRQAIGLMGYRLSPQTLTTIVKRYSKNGRIFFDDYVACCVKLRALTDFFRKRDHLQQGSANFIYDDFLQGTMAI
partner: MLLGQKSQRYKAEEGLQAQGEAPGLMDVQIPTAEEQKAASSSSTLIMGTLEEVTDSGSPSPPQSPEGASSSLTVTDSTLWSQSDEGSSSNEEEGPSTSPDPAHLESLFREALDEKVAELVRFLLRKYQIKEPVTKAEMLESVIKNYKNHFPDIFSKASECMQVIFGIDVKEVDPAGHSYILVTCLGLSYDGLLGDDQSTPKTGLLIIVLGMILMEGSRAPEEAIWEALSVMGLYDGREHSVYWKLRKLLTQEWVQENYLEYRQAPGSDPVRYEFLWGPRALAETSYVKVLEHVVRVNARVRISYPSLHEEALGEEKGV
B2: Cyclin-D1-binding protein 1 (Homo sapiens), O95273 (parent)
chain: MASATAPAAAVPTLASPLEQLRHLAEELRLLLPRVRVGEAQETTEEFNREMFWRRLNEAAVTVSREATTLTIVFSQLPLPSPQETQKFCEQVHAAIKAFIAVYYLLPKDQGITLRKLVRGATLDIVDGMAQLMEVLSVTPTQSPENNDLISYNSVWVACQQMPQIPRDNKAAALLMLTKNVDFVKDAHEEMEQAVEECDPYSGLLNDTEENNSDNHNHEDDVLGFPSNQDLYWSEDDQELIIPCLALVRASKACLKKIRMLVAENGKKDQVAQLDDIVDISDEISPSVDDLALSIYPPMCHLTVRINSAKLVSVLKKALEITKASHVTPQPEDSWIPLLINAIDHCMNRIKELTQSELEL
partner: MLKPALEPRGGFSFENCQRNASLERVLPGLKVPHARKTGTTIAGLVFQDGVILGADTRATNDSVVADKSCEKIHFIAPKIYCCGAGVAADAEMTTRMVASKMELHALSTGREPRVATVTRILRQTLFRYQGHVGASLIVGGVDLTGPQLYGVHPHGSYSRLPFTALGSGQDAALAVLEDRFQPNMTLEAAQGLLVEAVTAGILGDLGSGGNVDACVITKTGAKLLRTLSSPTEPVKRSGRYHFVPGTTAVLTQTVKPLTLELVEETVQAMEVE
B3: Zinc finger protein 488 (Homo sapiens), Q96MN9 (parent)
chain: MPEWPPCLSVAPALVITMAAGKGAPLSPSAENRWRLSEPELGRGCKPVLLEKTNRLGPEAAVGRAGRDVGSAELALLVAPGKPRPGKPLPPKTRGEQRQSAFTELPRMKDRQVDAQAQEREHDDPTGQPGAPQLTQNIPRGPAGSKVFSVWPSGARSEQRSAFSKPTKRPAERPELTSVFPAGESADALGELSGLLNTTDLACWGRLSTPKLLVGDLWNLQALPQNAPLCSTFLGAPTLWLEHTQAQVPPPSSSSTTSWALLPPTLTSLGLSTQNWCAKCNLSFRLTSDLVFHMRSHHKKEHAGPDPHSQKRREEALACPVCQEHFRERHHLSRHMTSHS
partner: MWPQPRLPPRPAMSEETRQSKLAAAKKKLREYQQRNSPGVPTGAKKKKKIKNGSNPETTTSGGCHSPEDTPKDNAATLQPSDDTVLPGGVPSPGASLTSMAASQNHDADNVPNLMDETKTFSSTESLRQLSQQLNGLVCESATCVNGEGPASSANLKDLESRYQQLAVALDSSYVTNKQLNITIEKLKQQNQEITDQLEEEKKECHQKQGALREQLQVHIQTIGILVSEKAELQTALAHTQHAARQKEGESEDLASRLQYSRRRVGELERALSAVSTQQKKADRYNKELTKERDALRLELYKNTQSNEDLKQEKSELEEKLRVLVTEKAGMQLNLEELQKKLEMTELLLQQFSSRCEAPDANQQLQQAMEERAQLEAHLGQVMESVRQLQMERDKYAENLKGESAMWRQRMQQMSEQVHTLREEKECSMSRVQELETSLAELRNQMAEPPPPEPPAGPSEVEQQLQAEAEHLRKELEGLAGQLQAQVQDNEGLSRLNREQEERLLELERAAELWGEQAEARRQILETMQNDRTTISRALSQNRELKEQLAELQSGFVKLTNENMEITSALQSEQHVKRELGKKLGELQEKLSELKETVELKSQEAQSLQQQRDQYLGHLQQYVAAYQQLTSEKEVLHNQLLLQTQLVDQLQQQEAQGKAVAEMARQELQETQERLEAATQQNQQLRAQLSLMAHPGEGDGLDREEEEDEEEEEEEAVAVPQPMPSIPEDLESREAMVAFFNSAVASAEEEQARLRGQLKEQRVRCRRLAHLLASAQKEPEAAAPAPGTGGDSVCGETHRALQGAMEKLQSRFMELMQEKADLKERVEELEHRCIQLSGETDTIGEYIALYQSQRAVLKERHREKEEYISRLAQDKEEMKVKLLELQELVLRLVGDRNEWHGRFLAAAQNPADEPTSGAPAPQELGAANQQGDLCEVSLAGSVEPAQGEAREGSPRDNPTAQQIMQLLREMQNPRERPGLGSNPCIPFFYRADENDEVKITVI
B4: Notch homolog 2 N-terminal-like protein A (Homo sapiens), Q7Z3S9 (parent)
chain: MCVTYHNGTGYCKCPEGFLGEYCQHRDPCEKNRCQNGGTCVAQAMLGKATCRCASGFTGEDCQYSTSHPCFVSRPCLNGGTCHMLSRDTYECTCQVGFTGKECQWTDACLSHPCANGSTCTTVANQFSCKCLTGFTGQKCETDVNECDIPGHCQHGGTCLNLPGSYQCQCLQGFTGQYCDSLYVPCAPSPCVNGGTCRQTGDFTFECNCLPETVRRGTELWERDREVWNGKEHDEN
partner: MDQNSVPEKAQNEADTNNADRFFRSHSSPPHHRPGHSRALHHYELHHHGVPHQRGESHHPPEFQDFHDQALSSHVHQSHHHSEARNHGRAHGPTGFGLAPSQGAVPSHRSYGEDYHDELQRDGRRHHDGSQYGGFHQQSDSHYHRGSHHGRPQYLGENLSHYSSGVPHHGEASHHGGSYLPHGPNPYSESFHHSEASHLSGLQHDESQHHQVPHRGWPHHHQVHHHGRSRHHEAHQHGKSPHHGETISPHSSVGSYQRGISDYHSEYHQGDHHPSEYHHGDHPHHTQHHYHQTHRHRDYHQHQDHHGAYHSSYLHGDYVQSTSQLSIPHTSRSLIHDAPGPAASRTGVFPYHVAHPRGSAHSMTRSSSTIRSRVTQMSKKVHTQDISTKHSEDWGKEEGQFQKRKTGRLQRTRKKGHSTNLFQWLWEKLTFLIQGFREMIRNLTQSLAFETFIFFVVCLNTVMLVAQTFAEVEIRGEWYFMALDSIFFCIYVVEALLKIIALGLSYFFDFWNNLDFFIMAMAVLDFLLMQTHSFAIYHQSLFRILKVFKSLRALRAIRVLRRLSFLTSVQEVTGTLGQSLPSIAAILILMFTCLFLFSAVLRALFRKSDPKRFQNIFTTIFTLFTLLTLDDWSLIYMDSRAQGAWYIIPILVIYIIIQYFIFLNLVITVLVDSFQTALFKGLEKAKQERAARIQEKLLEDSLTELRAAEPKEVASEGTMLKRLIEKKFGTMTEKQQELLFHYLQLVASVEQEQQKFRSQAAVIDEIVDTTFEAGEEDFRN
B5: Probable RNA-binding protein 46 (Homo sapiens), Q8TBY0 (parent)
chain: MNEENIDGTNGCSKVRTGIQNEAALLALMEKTGYNMVQENGQRKFGGPPPGWEGPPPPRGCEVFVGKIPRDMYEDELVPVFERAGKIYEFRLMMEFSGENRGYAFVMYTTKEEAQLAIRILNNYEIRPGKFIGVCVSLDNCRLFIGAIPKEKKKEEILDEMKKVTEGVVDVIVYPSATDKTKNRGFAFVEYESHRAAAMARRKLIPGTFQLWGHTIQVDWADPEKEVDEETMQRVKVLYVRNLMISTTEETIKAEFNKFKPGAVERVKKLRDYAFVHFFNREDAVAAMSVMNGKCIDGASIEVTLAKPVNKENTWRQHLNGQISPNSENLIVFANKEESHPKTLGKLPTLPARLNGQHSPSPPEVERCTYPFYPGTKLTPISMYSLKSNHFNSAVMHLDYYCNKNNWAPPEYYLYSTTSQDGKVLLVYKIVIPAIANGSQSYFMPDKLCTTLEDAKELAAQFTLLHLDYNFHRSSINSLSPVSATLSSGTPSVLPYTSRPYSYPGYPLSPTISLANGSHVGQRLCISNQASFF
B6: PIH1 domain-containing protein 2 (Homo sapiens), Q8WWB5 (parent)
chain: METSSKGLLTQVTQFWNLLDDLAQSDPEGYEKFIQQQLKEGKQLCAAPEPQLCLQTRILKPKEKILFINLCQWTRIPAPQSTTHPVPLTVGKPEDTTEISDAYTVIDVAYNPDVLHAAEKDQVKKNQLIQMAMKCIEEKFQFTLSHSYHITKFRIKGSIQRMKQNLMGIQTDSIDLREKMRRELTLGQIRSSTMSNPDHFPQLLLPKDQVSGKAVCLIEEISSTEIQVEMKMPAYELKIVHDHSEKPLKIELKVELPGINSVSLCDLSVSEDDLLIEVSEKYRLHLNLPKLIDTEMTTAKFIKEKSTLIITMPLV

Variants of: B1
Details: with maga8_human MAGEA8, P43361

| effect of a mutation on the interaction | Variant |
| --- | --- |
| disrupting interaction strength | K115R |

Variants of: B2
Details: with psb10_human PSMB10, P40306

| effect of a mutation on the interaction | Variant |
| --- | --- |
| disrupting interaction strength | I277T |

Variants of: B3
Details: with goga2_human GOLGA2, Q08379

| effect of a mutation on the interaction | Variant |
| --- | --- |
| with no effect | A72V |
| with no effect | C230R |

Variants of: B4
Details: with ctsr1_human CATSPER1, Q8NEC5

| effect of a mutation on the interaction | Variant |
| --- | --- |
| with no effect | R74Q |
| with no effect | A115T |

Variants of: B5
Details: with rbpms_human RBPMS

| effect of a mutation on the interaction | Variant |
| --- | --- |
| with no effect | I126M |

Variants of: B6
Details: with cenpr_human ITGB3BP

| effect of a mutation on the interaction | Variant |
| --- | --- |
| with no effect | A102D |

Variants of: B6
Details: with if2b3_human IGF2BP3, O00425
Chain of if2b3_human IGF2BP3, O00425 (O00425 whole entry): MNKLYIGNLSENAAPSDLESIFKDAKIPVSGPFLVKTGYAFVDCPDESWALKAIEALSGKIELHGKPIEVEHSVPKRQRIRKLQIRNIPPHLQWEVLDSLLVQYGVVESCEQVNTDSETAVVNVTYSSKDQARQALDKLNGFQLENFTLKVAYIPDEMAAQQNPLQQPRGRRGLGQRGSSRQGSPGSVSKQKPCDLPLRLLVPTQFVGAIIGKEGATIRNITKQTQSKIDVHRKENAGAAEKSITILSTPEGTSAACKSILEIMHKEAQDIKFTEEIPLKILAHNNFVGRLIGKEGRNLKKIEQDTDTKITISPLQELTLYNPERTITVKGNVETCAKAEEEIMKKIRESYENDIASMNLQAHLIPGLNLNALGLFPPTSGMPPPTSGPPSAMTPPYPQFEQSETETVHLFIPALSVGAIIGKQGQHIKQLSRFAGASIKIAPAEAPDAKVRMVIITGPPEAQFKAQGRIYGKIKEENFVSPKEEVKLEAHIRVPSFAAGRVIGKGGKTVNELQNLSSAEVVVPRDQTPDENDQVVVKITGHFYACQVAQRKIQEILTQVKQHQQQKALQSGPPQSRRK

| effect of a mutation on the interaction | Variant |
| --- | --- |
| with no effect | A102D |

Variants of: B6
Details: with if4a2_human EIF4A2, Q14240
Chain of if4a2_human EIF4A2, Q14240 (Q14240 whole entry): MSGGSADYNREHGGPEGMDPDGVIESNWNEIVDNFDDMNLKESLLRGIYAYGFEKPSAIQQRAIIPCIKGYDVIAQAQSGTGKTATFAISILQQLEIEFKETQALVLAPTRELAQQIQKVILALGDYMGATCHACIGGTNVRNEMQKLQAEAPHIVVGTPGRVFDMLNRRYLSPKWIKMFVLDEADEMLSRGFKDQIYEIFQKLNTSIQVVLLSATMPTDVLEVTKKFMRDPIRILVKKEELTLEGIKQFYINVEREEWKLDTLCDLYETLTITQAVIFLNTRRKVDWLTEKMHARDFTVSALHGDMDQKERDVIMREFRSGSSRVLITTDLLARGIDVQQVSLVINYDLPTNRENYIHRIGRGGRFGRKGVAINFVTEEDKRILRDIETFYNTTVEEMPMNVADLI

| effect of a mutation on the interaction | Variant |
| --- | --- |
| with no effect | A102D |

Variants of: B6
Details: with gfap_human GFAP

| effect of a mutation on the interaction | Variant |
| --- | --- |
| with no effect | A102D |
